Test results reported in US20220023395A1.

Experiments:
[1] = molecular target: T1, CD124 (IL4-receptor) on 4T1 triple-negative breast cancer cells (mouse) (UniProt P16382); assay: cell-based or functional assay
T1 sequence: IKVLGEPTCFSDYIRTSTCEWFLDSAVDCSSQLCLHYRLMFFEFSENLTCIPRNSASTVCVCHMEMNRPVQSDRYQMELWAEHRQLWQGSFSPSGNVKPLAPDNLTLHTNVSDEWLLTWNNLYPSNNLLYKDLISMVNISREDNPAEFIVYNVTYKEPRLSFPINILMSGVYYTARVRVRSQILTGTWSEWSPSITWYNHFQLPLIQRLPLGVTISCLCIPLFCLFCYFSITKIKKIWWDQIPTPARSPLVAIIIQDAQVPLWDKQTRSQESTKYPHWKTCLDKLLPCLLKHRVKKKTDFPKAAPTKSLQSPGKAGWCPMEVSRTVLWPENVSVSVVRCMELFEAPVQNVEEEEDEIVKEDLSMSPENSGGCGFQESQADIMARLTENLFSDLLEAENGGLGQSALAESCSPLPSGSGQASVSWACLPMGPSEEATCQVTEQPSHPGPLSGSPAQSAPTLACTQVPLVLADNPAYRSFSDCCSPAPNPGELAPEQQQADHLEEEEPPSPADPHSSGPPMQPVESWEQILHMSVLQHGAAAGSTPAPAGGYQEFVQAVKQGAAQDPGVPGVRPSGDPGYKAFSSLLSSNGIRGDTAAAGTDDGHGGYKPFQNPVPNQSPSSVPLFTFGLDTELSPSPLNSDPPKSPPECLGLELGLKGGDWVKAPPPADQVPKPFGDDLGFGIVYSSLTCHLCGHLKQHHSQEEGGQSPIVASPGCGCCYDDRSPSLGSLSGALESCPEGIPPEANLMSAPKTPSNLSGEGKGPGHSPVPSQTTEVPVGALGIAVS

[2] = molecular target: IL-2 receptor (CD25) on HUT-102 and MT-2 cells (human) (UniProt P01589); assay: cell-based or functional assay
UniProt P01589, sequence (P01589 22-272): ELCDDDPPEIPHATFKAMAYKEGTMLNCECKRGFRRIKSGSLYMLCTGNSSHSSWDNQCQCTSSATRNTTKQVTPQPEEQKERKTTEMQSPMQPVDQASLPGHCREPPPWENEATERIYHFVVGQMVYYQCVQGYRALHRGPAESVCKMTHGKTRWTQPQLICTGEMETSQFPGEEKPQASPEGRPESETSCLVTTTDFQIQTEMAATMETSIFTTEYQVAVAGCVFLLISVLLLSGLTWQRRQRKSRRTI

Question: What does the source list for s-DAB1-389-mIL4-His6 (SEQ ID NO: 134)?
Answer: IC50 for killing 4T1 cells (Trypan blue viability) [1]: 10 pM; IC50 of 4T1 cell migration inhibition (clonogenic assay, Giemsa staining) [1]: 800 pM

Question: With “C. diphtheriae-derived s-Ontak-His6 (SEQ ID NO: 58)” as the substance, how does the MT-2 cell IC50 (earlier disclosed data) [2] read?
Answer: 0.12 pM

Question: With “E. coli-derived classic Ontak (denileukin diftitox, SEQ ID NO: 10)” as the substance, how does the IC50 against HUT-102 T cell lymphoma cells (in vitro cell killing) [2] read?
Answer: 1.8 pM
